Test results from paper doi:10.1101/2024.08.25.607996 (2024).
Where “and” joins values, the source holds several entries; their conditions need not be identical. Equal values may be shown once.

T1: CCoV-HuPn-2018 S domain B (receptor-binding domain), residues 523-671, avi- and His-tagged (CCoV-HuPn-2018 (canine coronavirus))
T1 chain: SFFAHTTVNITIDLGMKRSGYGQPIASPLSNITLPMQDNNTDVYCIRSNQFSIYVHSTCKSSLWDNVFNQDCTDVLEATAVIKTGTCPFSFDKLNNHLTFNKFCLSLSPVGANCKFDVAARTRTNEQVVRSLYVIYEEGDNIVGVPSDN

B1: feline APN-Fc ectodomain (dimeric) (Fc fusion)
chain: DQSKPWNVYRLPKTLIPDSYNVTLRPYLTPNNKGLYVFTGTNIVRFTCKESTNIVIIHSKRLNYTSHQGHMVALSGVGGFHPQPVIVRTELVELTEYLVVHLQEPLVAGRQYEMNSEFQGELADDLAGFYRSEYMENGVKKVLATTHMQATEARKSFPCFDEPAMKATFNITIIHPNNLVALSNMLPRGPSVPFGEDPTWKVTEFETTPIMSTYLLAYIVSEFSYVETRAPSGVLIRIWARPSAINQGHGDYALKVTGPILDFFSQHYDTPYPLNKSDQIALPDFNAGAMENWGLVTYRESALLYDRQSSSSGNQERVVTVIAHELAHQWFGNLVTLEWWNDLWLNEGFASYVEYLGADFAEPTWNLKDLMVLNDVYRVMAVDALASSHPLSTPASEINTPAQISEVFDSISYSKGASVLRMLSNFLTEDLFKMGIASYLHTYKYGNTIYLNLWEHLQQVVDKQPTIKLPDTVSAIMDRWILQMGFPVITVDTQTGTISQQHFLLDPQSVVTRPSQFNYLWIVPISSVRSGSPQAHYWLPGVEKAQNDLFKTTANDWVLLNLNVTGYYLVNYDNENWKKIQTQLQTDLSVIPVINRAQVIHDAFNLASAQKVPVTLALNNTLFLIQETEYMPWQAALSSLSYFKLMFDRSEVYGPMKRYLKKQVTPLFNHFERVTKNWTDHPQTLMDQYSEINAVSTACSYGVPECEKLAATLFAQWKKNPQNNPIHPNLRSTVYCNAIAQGGEEEWNFVWEQFLKAELVNEADKLRGALACSNQVWILNRFLSYTLDPNLIRKQDVTSTLSSISSNVVGQTLVWDFVQSNWKKLFQDYGTGSFSFSNLIQAVTRRFSTEFELQQLEQFKKNNMDTGFGSATRALEQALEKTKANLKWVKENKDVVLRWFTENS
B2: canine APN-Fc ectodomain (dimeric) (Fc fusion)
chain: LAQSKPWNHYRLPKTLIPSSYNVTLRPYLTPNSNGLYTFKGSSTVRFTCKESTSMIIIHSKKLNYTNIQGQRVALRGVGGSQAPAIDRTELVEVTEYLVVHLREPLQVNSQYEMDSKFEGELADDLAGFYRSEYTENGVKKVLATTQMQAADARKSFPCFDEPAMKATFNITLIHPSNLVALSNMLPRGPSVPFTEEPNWNVTEFETTPIMSTYLLAYIVSEFKNVQENTPSNVLIRIWARPSAMDQGHGNYALRVTGPILDFFSRHYDTPYPLNKSDQIALPDFNAGAMENWGLVTYRESALLYDPQSSSIGNKERVVTVIAHELAHQWFGNLVTLEWWNDLWLNEGFASYVEYLGADYAEPTWNLKDLIVLNEVYRVMAVDALASSHPLSSPASEVNTPAQISEVFDSISYSKGASVLRMLSSFLTEDLFKKGVASYLHTFAYQNTIYLDLWNHLQWALGNQTAINLPYTVNAIMDRWILQMGFPVVTVDTTTGTLSQKHFLLDPQSNVTRPSKFNYLWIIPISSVKSGTQQAHYWMPDNAKVQNDLFKTTGDEWVLLNLNVTGYYLVNYDQNNWKKIHTQLQTDLSVIPVINRAQVIHDTFDLASAQIVPVTLALNSTLFLNQETEYMPWEAALSSLSYFKLMFDRSEVYGPMKNYLRKQVTPLFNHFEKITQNWTDHPQTLTEQYNEINAVSTACTYGVPKCKDLVSTLFAEWRKNPQNNPIYPNLRSTVYCNAIAQGGEEEWNFVWEQFRNTSLVNEADKLRSALACSTQVWILNRYLSYTLNPEFIRKQDVISTLSSIASNVIGQSLAWDFIQSNWKKLFEDYGTGSFSFSNLIQAVTRRFSTEFELQQLEQFKANNMDTGFGSGTRALEQALEKTKANIKWVKENKEAVLQWFRENSQ

Legend:
[1] = target: T1, CCoV-HuPn-2018 S domain B …; experiment: BLI
[2] = target: FCoV-23 S domain B (receptor-binding domain), residues 529-677, avi- and His-tagged (FCoV-23 (feline coronavirus)); experiment: BLI

| Binder | Kd [1] [nM] | Kd [2] [nM] | koff [2] |
| --- | --- | --- | --- |
| B1 | 28 | 10 | 0.0013 s⁻¹ and 0.0014 s⁻¹ |
| B2 | 2.6 | 1.2 | 0.00019 s⁻¹ and 0.00018 s⁻¹ |
